The source of these data is the RNAGym collection of RNA variant scans (doi:10.1073/pnas.2313332121).

To fix the notation:
B1: TPR 5TU (parent)
chain: GGAUCUUCUCGAUCUAACAAAAAAGACAAAUCUGCCACAAAGCUUGAGAGCAUCUUCGGAUGCAGAGGCGGCAGCCUUCGGUGGCGCGAUAGCGCCAACGUUCUCAACUAUGACACGCAAAACGCGUGCUCCGUUGAAUGGAGUUUAUCAUG

Variants at the floor of the assay were thinned out.

In this series the parent is B1. As to the kind of experiment: polymerase ribozyme fitness, log enrichment relative to wild type (log ratio); higher = more active; in vitro selection for triplet polymerase activity. The method, boiled down:
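In triplicate, a single round of in vitro selection was run on each mutant library, PCR-built and transcribed, covering one subunit of a heterodimeric triplet polymerase ribozyme. Frozen incubation at −7 °C followed annealing with a biotinylated primer, partner subunit and triplets, and extended constructs were then gel-excised, streptavidin-captured and taken through RT-PCR. Fitness is the logarithm of genotype enrichment over wild-type enrichment, from inverse-variance-weighted replicate averages of Illumina-sequenced inputs and outputs. […] only genotypes with ≥10 input reads and ≥1 read per output were kept.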
Regarding GGAUCUUCUCGAUCUAACGAAAAAGACAAAUCUGUCACAAAGCUUGAGAGCAUCUUCGGAUGCAGAGGCGGCAGGCUUCGGUGGCGCGAUAGCGCCAACGUUCUCAACUAUGACACGCAAAACGCGUGAUCCGUCGAAUGGAGUGUAUCAUG [A19G C35U C75G C129A U135C U145G], the “polymerase ribozyme fitness (log ratio)” value was at most -4.2.
Turning to GGAUCUUCUCGAUCUAACGAAAAAGACAAAUCUGCCACAAAGCUUGAGAGCAUCUUCGGAUGCAGAGGCGGCAGUCUUCGGUGGCGCGAUAGAGCCAACGUUCUCAACUAUGACACGCAAAACGCGUGCUCCGUUGAAUGGAGUUUAUCAUG [A19G C75U C93A], the “polymerase ribozyme fitness (log ratio)” value was -3.68.
On to GGAUCUUCUCGAUCUAACGAAAAAGACAAAUCUGCCACAAAGCUUGAGGGCAUCUACGGAUGCAGGCGCGGCAGCCUUCGGUGGCGCGAUAGCGCCAACGUUCUCAAUUAUGACACGCAAAACGCGUGCUCCGUUAAAUGGAGUUUAUAAUU [A19G A49G U56A A66G G67C C108U G136A C149A G152U], for which the “polymerase ribozyme fitness (log ratio)” value was at most -4.2.
In the case of GGAUCUUCUCGAUCUAACGAAAAAGACAAAUCUGCCACAAAGCUUGAGGGCCUCAUCGGAUGCAGAGGCGGCAGCCUUCGGUGGCGCGAUAGCGCCAACGUUCUCAACUAUGACACGCAAAACGCGUGCUCCGUUGAAUGGAGUUUAUCAUG [A19G A49G A52C U55A], the “polymerase ribozyme fitness (log ratio)” value was -4.18.
Turning to GGAUCUUCUCGAUCUAACGAAAAAGACAAAUCUGCCACAAAGCUUGAGAGCGUCUUCUGAUGCGGAGGCGGCAGCCUUCGGUGGCGCGAUAGCGCCAACGUUCUCAACUAUGACACGCAAAACGCGUGCUCCGUUGAAAGGAGUUUAUCAUG [A19G A52G G58U A64G U139A], the “polymerase ribozyme fitness (log ratio)” value is at most -4.2.
For GGAUCUUCUCGAUCUAACGAAAAAGACAAAUCUGCCACAAAGCUUGAGAGCAUAUUCGGAUGCAGAGGCGGCAGCCUUCGGUGGCGCGAUAGCGCCAACGUUCUCAACUAUGACACGCAAAACGCGUGCUCCGUUGAAUGGAGUUUAUCAUG [A19G C54A], the “polymerase ribozyme fitness (log ratio)” value was -1.26.
As for GGAUCUUCUCGAUCUAACGAAAAAGACAAAUCUGCCACAAAGCUUGAGAGCUUCUUCGGAUGCAGAGGCGGCAGCCUUCGGUAGCGCGAUAGCGCCAGCGUUCUCAACUAUGACACGGAAAACACGUGCUCCGCUGAAUUGAGUUUAUCAUG [A19G A52U G83A A98G C118G G124A U134C G140U], the “polymerase ribozyme fitness (log ratio)” value was at most -4.2.
In the case of GGAUCUUCUCGAUCUAACGAAAAAGACAAAUCUGCCACAAAGCUUGAGAGCAUCUUCGGAUGCAGAGGCGGCAGCCUUCGGUGGCGCGAUAACGCCAACGUUCUCAACUAUGACACGCAAAACUCGUGCUCCGUUGAAUGGAGUUUAUCAUG [A19G G92A G124U], the “polymerase ribozyme fitness (log ratio)” value is -3.61.
In the case of GGAUCUUCUCGAUCUAACGAAAAAGACAAAUCUGCCAUAAAGCUUGAGAGCAUCUUCGGAUGCAGAGGCGGCAGCGUUCGGUGGCGCGAUAGAGCCAACGUUAUCAACUAUGACACGCAAAACGCGUGCUCCGUUGAAUGGAUUUUAUCAUG [A19G C38U C76G C93A C103A G143U], the “polymerase ribozyme fitness (log ratio)” value was at most -4.2.
With GGAUCUUCUCGAUCUAACGAAAAAGACAAAUCUGCCACAAAGCUUGAGAGCAUCUUCGGAUGCAGAGGCGGCAGCCUUCGGUGGCGCGCUAGCGCCAACGUUCUGAACUAUGACACGCAAAACGCGUGCUCCGUUGAAUGGAGUUUAUCAUG [A19G A89C C105G] the figure was -1.99.
For GGAUCUUCUCGAUCUAACGAAAAAGACAAAUCUGCCACAAAGCUUGAGAGCAUCUUUGGAUGCAAAGGCGGCAGCCUUCGGUGGCGCGAUAGCGCCAACGUACUCAACUAUGACACGCAAAACGCUUGCUCCGUUGAAUGGAGUUUAUCAUG [A19G C57U G65A U102A G126U], the “polymerase ribozyme fitness (log ratio)” value was -3.89.
With GGAUCUUCUCGAUCUAACGAAAAAGACAAAUCUGCCACAAAGCUUGAGAGUAUCUUCGGAUGCAGAGGCGGCAGCCUUCGGUGGCGCGAUAGCGACAACGUUCUCAACUAUGACUCGCAAAACGCGUGCUCCGUUGAAUGGAGUUUAUCAUG [A19G C51U C95A A115U] the figure was -3.61; with GGAUCUUCUCGAUCUAACGAAAAAGACAAAUCUGCCACAAAGCAUGAGAGCAUCUUCAGAUGCAGAAGCGGCAGCCUUCGGUGGCGAGAUAGCGCCAACGUUCUCGACUAUGACACGCAAAACGCGUGCUCCGUUGAAUGUAGUUUAUCAUG [A19G U44A G58A G67A C87A A106G G141U], at most -4.2.
Take GGAUCUUCUCGAUCUAACGAAAAAUACAAAUCUGCCACAAAGCUUGAGAACAUCUUCGGAUGCAGAGGCGGCAGCCUUCGGUGGCGCGAUAGUGCCAACGUUCUCAACUAUGACACGCAGAACGCGUGCUCCGUUGAAUGGAGUUUAUCAUG [A19G G25U G50A C93U A120G]: the “polymerase ribozyme fitness (log ratio)” value was at most -4.2.
As for GGAUCUUCUCGAUCUAACGAAAAAGACAAAUCUGCCAUACAGCUUGAGAGCAUCUUCGGAUGCAGAGGCGGCAGCCUUAGGUGGCUCGAUAGCGCGAACGUUCUCAACUAUGACACGCAAAACGCGUGCUCCGUUGAAUGGAGUUUAUCAUG [A19G C38U A40C C79A G86U C96G], the “polymerase ribozyme fitness (log ratio)” value was at most -4.2.
With GGAUCUUCUCGAUCUAACGAAAAAGACAAAUCUGUCACAAAGCUUGAGAGCAUCUUCAGAUGCAGAGGCGGCAGCCUUCGGUGGAGCGAUAGCGCCAACGUUCUCAACUAUGACACGCAAAACGCGUGCUCCGUUGAAUGGAAUUUAUCAUG [A19G C35U G58A C85A G143A], the “polymerase ribozyme fitness (log ratio)” value was -3.66.
As to GGAUCUUCUCGAUCUAACGAAAAAGACAAAUCUGUCACAAAGCUUGAGAGCAUCUUCGGAUGCAGAGGCGGCAGCCUUCGGUGGCGUGAUAGCGACAACGUUCUCAACUAUGACACGCAAAACGCGUGCUCCGUUGAAUGGAGUUUAUCAUG [A19G C35U C87U C95A], the “polymerase ribozyme fitness (log ratio)” value is -2.49.
Consider GGAUCUUCUCGAUCUAACGAAAAAGACAAAUCUGCCACCAAGCUUGAGAGCAUCUUCGGAUGCAGAGGCGGCAGCCUUCGGUGGCGCGAUAACGCCAACGUUCUCAACUAUGACAAGCAAAACGCGUGCUCCGUUGAAUGGAGUUUAUCAUG [A19G A39C G92A C116A], for which the “polymerase ribozyme fitness (log ratio)” value was at most -4.2.
To GGAUCUUCUCGAUCUAACGAAAAAGACAAAUCUGCCACAAAGCUUGAGAGCAUCUUCGGAUGCAGAGGCGGCAGCCUUCGGUGGCGCGAUAGCGCCAACGUUCUCAACUAUGACACGCAAAACGCGUGCUCCGUUGAAUGCAGUUUAUCAUG [A19G G141C] belongs -0.542.
